Laboratory results published in patent US12662540B2, “Compositions and methods for inhibition of MICA/B shedding” (DANA-FARBER CANCER INSTITUTE, INC., priority 2017, dated 2026).

Columns and labels:
[1] = test system: MICA α3 domain; assay: ELISA for antibody binding to immobilized MICA α3 domain; parameters: species or system human; settings: fluorescence-based ELISA, immobilized antigen
Method: ELISA experiments were performed in DELFIA® 96-well plates (Perkin Elmer) or in Nunc Maxisorp 96-wells plates (Thermo Scientific). Wells were coated with antigens by overnight incubation at 4° C. using 100 ng of protein in 100 μl of carbonate buffer, […]. Plates were subsequently washed with 1× Tris-buffered saline-Tween buffer and incubated for 2 hours with 2% bovine serum albumin (BSA) in phosphate buffered saline (PBS), pH 7.4, or DELFIA® Assay Buffer (Perkin Elmer) at room temperature. MICA antibodies were used at 1 μg/ml, unless indicated otherwise. Isotype controls were MPC-11 (mIgG2b) and MOPC-21 (mIgG1), but only MPC-11 is shown in the figures, given that no differences were observed between these controls. Human isotype control was a recombinant human IgG1 antibody (BE0096, BioXcell). Biotinylated goat anti-mouse IgG (Poly4053—Biolegend) was used as the secondary antibody which was followed by streptavidin-Europium (Perkin Elmer) and DELFIA® Enhancement Solution (Perkin Elmer). Europium fluorescence was quantified using an EnVision® microplate reader (Perkin Elmer). The HRP-conjugated secondary antibodies were Novex® Goat anti-human IgG (A24470, Life Technologies), Goat anti-mouse IgG1 (1070-05), IgG2a (1080-08), IgG2b (1090-05), and IgG3 (1100-05), and Goat anti-mouse IgG (31430, Thermo Scientific). […] Absorbance was read at 450 nm.

[2] = test system: murine tumor cell lines (B16F10, CT26, Neuro-2a) expressing full-length MICA or MICB; assay: Shed and surface MICA/MICB in murine tumor cell lines transduced with full-length MICA or MICB; type: cell-based, mouse; settings: B16F10 cells expressing MICA or MICB; comparison among mAbs
Excerpt: B16F10, CT26, Neuro-2a, EL4 and RMA-S cell lines were transduced with lentiviral vector pHAGE-CMV-fullEF1a. MICA (allele 009) cDNA or other inserts were placed between NotI and BamHI cloning sites, 3′ to the EF1α promoter and 5′ to the IRES. ZsGreen or luciferase cDNAs were cloned 3′ to the IRES as fluorescence or bioluminescence reporters, respectively. The vector with the ZsGreen reporter was used to compare expression of cDNAs encoding full length MICA, full-length MICB and secreted MICA (Neuro-2a, RMA-S and/or B16F10 cell lines). CT26, EL4 and B16F10 cell lines were transduced with the vector that supported expression of the luciferase reporter. […]
Tumor cells (5×10^4 or 1×10^5 per well, depending on the cell line) were cultured for 24 to 72 hours in 96-well plates (flat-bottom plates for adherent cell lines, U-bottom plates for suspension cell lines). […] MICA or control antibodies were added at different concentrations, and shed MICA/B was then detected in supernatants by ELISA using the Human MICA ELISA kit (Ab59569, Abcam) or Human MICB DuoSet ELISA kit (DY1599, R&D Systems), using the procedures recommended by the manufacturers. […]
MICA and MICB were detected on the cell surface by the PE-conjugated anti-MICA/B antibody (clone 6D4, 320906, Biolegend). […] All samples were acquired in a BD LSR Fortessa flow cytometer, and analyzed by FlowJo V10 software.

B1: 7C6: monoclonal antibody from mice immunized with recombinant MICA α3 domain; parental mIgG2b; VH SEQ ID NO: 7, VL SEQ ID NO: 8 (antibody)
VH: QIQLVQSGPELKKPGETVKVSCKASGYMFTNYAMNWVKQAPEKGLKWMGWINTHTGDPTYADDFKGRIAFSLETSASTAYLQINNLKNEDTATYFCVRTYGNYAMDYWGQGTSVTVSSAKTTAPSVYPLAPVCGDTTGSSVTLGCLVKGYFPEPVTLTWNSGSLSSGVHTFPAVLQSDLYTLSSSVTVTSS
VL: DIQMTQTTSSLSASLGDRVTISCSASQDISNYLNWYQQKPDGTVKLLIYDTSILHLGVPSRFSGSGSGTDYSLTISNLEPEDIATYYCQQYSKFPRTFGGGTTLEIK
modifications: mAb 7C6 heavy chain amino acid sequence; mAb 7C6 light chain amino acid sequence
**Q.** How did the “binding to MICA α3 domain” value [1] turn out when B1 was run?
**A.** Its value is “bound to the MICA α3 domain”.

**Q.** What about the “stabilization of MICA/B on the surface of tumor cells” value [2] of the same molecule?
**A.** The value was “most effective in stabilizing MICAS on the surface of tumor cells”.
